The results in this text go back to US5795974.

Test [1] concerns the target Vβ 8.2 TCR on T hybridoma.
Test [2] deals with I-Eα chain of the murine MHC (class II) (mouse).

For “Staphylococcus enterotoxin B (from UniProt P01552) (ligand)”, the IL-2 (U/ml) produced by T hybridomas + APCs in the test with Vβ 1 TCR on T hybridoma was 0 U/ml; with Vβ 11 TCR on T hybridoma, 0 U/ml; with Vβ 3 TCR on T hybridoma, 1830 U/ml; in the test with Vβ 6 TCR on T hybridoma, 0 U/ml; in test [1], 608 U/ml.

In the case of “Native Mycoplasma arthritidis T-cell mitogen (MAM) (ligand)”, the IL-2 (U/ml) produced by T hybridomas + APCs is 0 U/ml with Vβ 1 TCR on T hybridoma; 0 U/ml with Vβ 11 TCR on T hybridoma; 0 U/ml in the test with Vβ 3 TCR on T hybridoma; 640 U/ml in the test with Vβ 6 TCR on T hybridoma; 232 U/ml in test [1]. The same substance gave an Uptake of 3H-TdR by Mouse Lymphocytes (counts per minute × 10^-3) in test [2] of 108.

As for “Staphylococcus enterotoxin A (from UniProt P0A0L2) (ligand)”, the IL-2 (U/ml) produced by T hybridomas + APCs was 691 U/ml in the test with Vβ 1 TCR on T hybridoma, 1180 U/ml with Vβ 11 TCR on T hybridoma, 1880 U/ml with Vβ 3 TCR on T hybridoma and 0 U/ml in test [1].

Take MBP-MAM fusion protein: the Uptake of 3H-TdR by Mouse Lymphocytes (counts per minute × 10^-3) in test [2] was 80.7.
